The record followed here is patent US20110039331A1 (OSAKA UNIVERSITY, published 2011).

In test [1] the target is Flag-tagged Fn (Flag-Fn) (human) (UniProt P02751). Briefly: SPR (Biacore), Flag-Fn on the chip, M2 antibody flowed over. A general note: Surface plasmon resonance follows binding to a sensor surface in real time, without labels.
The target in test [2] is T1, hGH-BAS-γC-P4×3, human growth factor/human fibrinogen γ chain C domain fusion protein with 3 repeats of the … (human, UniProt P01241 27-217; P02679 169-437).
T1 construct: also called P4×3-tagged hGH fusion protein
Briefly: SPR (Biacore X-100), P20.1 antibody-immobilized chip, fusion protein flowed over.

Test [3] has as its target hGH-BAS-γC-P4×5, human growth factor/human fibrinogen γ chain C domain fusion protein with 5 repeats of the … (human, UniProt P01241 27-217; P02679 169-437). The description is as above.
Test [4] has as its target T2, tag peptide/F-spondin fusion protein (P4×3, TEV protease cleavage sequence, N-terminal 146-amino-acid domain …).
T2 construct: Secreted from HEK293T cells; also called recombinant F-spondin protein
T2 chain: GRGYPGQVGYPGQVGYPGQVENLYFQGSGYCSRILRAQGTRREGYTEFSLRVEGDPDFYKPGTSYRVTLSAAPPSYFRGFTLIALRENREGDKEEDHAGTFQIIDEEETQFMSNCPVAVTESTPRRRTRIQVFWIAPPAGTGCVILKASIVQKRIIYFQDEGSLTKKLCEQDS
Briefly: affinity purification from culture supernatant on P20.1 antibody-Sepharose, elution with 40% propylene glycol and 1 M NaCl, SDS gel electrophoresis.
Protocol: Washing with TBS and eluting with a buffer solution containing 40% propylene glycol and 1 M NaCl were performed, and the resulting effluent was subjected to SDS gel electrophoresis.

The target in test [5] is T3, P4(C8) peptide (8-residue peptide PRGYPGQV) (human).
T3 peptide: PRGYPGQV
Briefly: X-ray crystallography of the complex.

Test [6] deals with P20.1 antibody (monoclonal antibody produced by mouse-mouse hybridoma P20.1, FERM BP-11061). Briefly: competitive elution of the P4×3-tagged hGH fusion protein from P20.1 antibody-Sepharose, SDS gel.
Test [7] has the same target. Briefly: competitive dissociation ELISA: free peptide added for 30 minutes to P20.1 antibody bound on coated P4(20)-Fn.
Test [8] has the same target. Briefly: competitive dissociation ELISA: P20.1 antibody bound to coated P4(20)-Fn, free P4(C8) peptide added at the final washing step for 30 minutes; displaced partner P4(20)-Fn. (ELISA stands for enzyme-linked immunosorbent assay.)

As a reminder, the Kd is a measure of binding affinity in units of concentration. The term koff denotes the first-order rate constant of dissociation. A high value points to fast dissociation. Broadly, the kon is the second-order rate constant of association. Low values mean slow association, high ones fast association.

Sequence of Flag-tagged Fn (Flag-Fn) (human) (P02751 other isoform, or with tags, fused parts or gaps limits assumed): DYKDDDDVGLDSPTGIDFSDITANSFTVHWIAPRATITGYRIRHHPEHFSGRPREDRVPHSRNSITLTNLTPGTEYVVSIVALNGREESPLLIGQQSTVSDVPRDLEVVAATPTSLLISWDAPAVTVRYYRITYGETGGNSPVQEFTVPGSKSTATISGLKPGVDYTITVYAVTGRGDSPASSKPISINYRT

In test [1], “commercially available anti-Flag antibody M2” returned a Kd of 2.7 nM, a koff of 0.000395 s⁻¹ and a kon of 146000 M⁻¹ s⁻¹.

B1: P20.1 antibody (monoclonal antibody produced by mouse-mouse hybridoma P20.1, FERM BP-11061) (antibody, mouse IgG1, V domains shown)
VH: QIQLVQSGPEVQKPGETVRISCKASGYTFTTAGMQWVQKMPGKSLKWIGWINTRSGVPKYAEDFKGRFAFSLETSASIAYLHINNLKNEDTATYFCAREGPGFVYWGQGTLVTVSA
VL: QTVVTQESALTTSPGETVTLTCRSSTGVVTTSNYANWVQEKPDHLFTGLIVGTNNRVPGVPPRFSGSLIGDKAALTITGAQTEDEAIYFCALWYSNHWVFGGGTKLTVL
notes: Biotinylated in the sandwich ELISA of 7-2-1 and coupled to CNBr-Sepharose in the pull-down and purification experiments; also called P20.1 Ab; monoclonal P20.1 antibody
On to B1, for which the “fold of the maximum binding capacity against the fusion protein with one repeat” value in test [2] and in test [3] was not below 4 fold throughout. In test [4], the binding result was “binds”.

B2: Fab fragment of the P20.1 antibody (Fab, V domains shown)
VH: QIQLVQSGPEVQKPGETVRISCKASGYTFTTAGMQWVQKMPGKSLKWIGWINTRSGVPKYAEDFKGRFAFSLETSASIAYLHINNLKNEDTATYFCAREGPGFVYWGQGTLVTVSA
VL: QTVVTQESALTTSPGETVTLTCRSSTGVVTTSNYANWVQEKPDHLFTGLIVGTNNRVPGVPPRFSGSLIGDKAALTITGAQTEDEAIYFCALWYSNHWVFGGGTKLTVL
notes: Made by papain digestion of the purified IgG1/lambda antibody; also called P20.1 antibody Fab fragment
As to B2, the binding result in test [5] is given as “binds”.

B3: P4(C8) peptide (8-residue peptide PRGYPGQV) (peptide)
peptide: PRGYPGQV
Consider B3, for which, in test [6], the peptide concentration that elutes the tagged fusion protein is more than 0.1 mg/mL. The molecule also displayed a peptide concentration at which almost complete dissociation was confirmed in test [7] of 0.1 mg/mL. Moreover, in test [8], the IC50 (read off the curve) turned out to be 10 µg/mL.
